Test results as given in US20090175790A1.

Target: WT HCN1 (mHCN1) (mouse (mHCN1)) (UniProt O88704)
Test: cell-based or functional assay

UniProt O88704, sequence (O88704 whole entry): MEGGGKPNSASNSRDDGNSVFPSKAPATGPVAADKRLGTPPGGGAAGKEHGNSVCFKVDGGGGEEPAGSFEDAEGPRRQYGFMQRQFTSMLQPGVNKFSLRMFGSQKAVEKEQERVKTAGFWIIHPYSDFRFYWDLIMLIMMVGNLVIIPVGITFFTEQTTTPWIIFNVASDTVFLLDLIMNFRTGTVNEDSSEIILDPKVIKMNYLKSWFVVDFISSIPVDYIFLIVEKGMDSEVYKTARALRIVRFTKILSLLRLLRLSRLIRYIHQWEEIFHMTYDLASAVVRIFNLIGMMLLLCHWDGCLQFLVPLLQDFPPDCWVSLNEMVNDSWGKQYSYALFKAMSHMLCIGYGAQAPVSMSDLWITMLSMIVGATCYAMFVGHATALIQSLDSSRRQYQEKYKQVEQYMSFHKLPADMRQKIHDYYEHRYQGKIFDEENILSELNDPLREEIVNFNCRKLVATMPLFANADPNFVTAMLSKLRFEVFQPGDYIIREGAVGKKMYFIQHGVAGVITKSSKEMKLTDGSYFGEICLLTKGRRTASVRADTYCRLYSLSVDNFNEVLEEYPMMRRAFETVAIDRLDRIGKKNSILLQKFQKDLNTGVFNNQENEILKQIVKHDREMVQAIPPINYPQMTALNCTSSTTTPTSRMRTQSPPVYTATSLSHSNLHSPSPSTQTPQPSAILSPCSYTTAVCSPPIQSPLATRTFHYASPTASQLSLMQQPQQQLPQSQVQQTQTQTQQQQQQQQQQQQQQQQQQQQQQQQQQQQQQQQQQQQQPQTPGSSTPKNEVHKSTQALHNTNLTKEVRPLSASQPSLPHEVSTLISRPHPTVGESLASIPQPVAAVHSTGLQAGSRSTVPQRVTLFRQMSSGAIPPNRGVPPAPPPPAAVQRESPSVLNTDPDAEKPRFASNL

current reduction, WTHCN1:HCN1-AAA cRNA ratio 1:1 (total 25 ng), Xenopus oocytes (% current reduction): 91.7
current reduction, WTHCN1:HCN1-AAA cRNA ratio 1:2 (total 25 ng), Xenopus oocytes (% current reduction): 97.9
current reduction, WTHCN1:HCN1-AAA cRNA ratio 2:1 (total 25 ng), Xenopus oocytes (% current reduction): 78.7
current reduction, WTHCN1:HCN1-AAA cRNA ratio 3:1 (total 25 ng), Xenopus oocytes (% current reduction): 68.3
current reduction, WTHCN1:HCN1-AAA cRNA ratio 4:1 (total 25 ng), Xenopus oocytes (% current reduction): 55.2
whole-cell current at -140 mV in Xenopus oocytes, co-injection of 50 nL WT HCN1 and 50 nL HCN1-AAA cRNA against WT HCN1 alone (current reduction): 85.2%
Substance: HCN1-AAA (mHCN1 with the triple mutation GYG365-367AAA) (from UniProt O88704 1-910)
